Test results published in paper PMC10774353, “Multi-scale structures of the mammalian radial spoke and divergence of axonemal complexes in ependymal cilia” (Nature Communications, 2024).

T1: Rsph4a (mouse, UniProt Q8BYM7 1-716)
T1 construct: Rsph4a (radial spoke head protein 4 homolog A), mouse, NM_001162957; Two copies stand in each RS head
T1 sequence: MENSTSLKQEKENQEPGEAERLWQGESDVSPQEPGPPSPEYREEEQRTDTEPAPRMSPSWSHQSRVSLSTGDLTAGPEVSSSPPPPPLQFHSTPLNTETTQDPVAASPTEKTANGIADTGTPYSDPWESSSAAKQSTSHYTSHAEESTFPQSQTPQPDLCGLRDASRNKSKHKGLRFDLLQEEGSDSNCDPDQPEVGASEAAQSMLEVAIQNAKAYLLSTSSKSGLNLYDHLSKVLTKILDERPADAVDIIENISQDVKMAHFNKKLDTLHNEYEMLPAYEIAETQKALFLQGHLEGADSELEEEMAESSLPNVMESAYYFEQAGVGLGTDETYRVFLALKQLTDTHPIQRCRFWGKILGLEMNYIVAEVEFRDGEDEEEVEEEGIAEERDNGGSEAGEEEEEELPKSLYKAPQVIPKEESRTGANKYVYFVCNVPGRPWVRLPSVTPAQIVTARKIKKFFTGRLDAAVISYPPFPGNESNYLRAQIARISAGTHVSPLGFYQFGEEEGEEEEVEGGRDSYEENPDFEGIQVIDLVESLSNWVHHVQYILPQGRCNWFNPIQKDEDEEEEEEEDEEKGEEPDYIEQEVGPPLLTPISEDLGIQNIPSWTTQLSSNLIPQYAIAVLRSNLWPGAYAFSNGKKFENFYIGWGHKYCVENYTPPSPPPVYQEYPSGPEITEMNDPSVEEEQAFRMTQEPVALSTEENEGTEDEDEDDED

B1: Rsph3b (natural protein, mouse)
chain: MTDRNPRTAEASGLYTYSSRPRAVACQRRRHRDSILQPVEEPMSYGNIMYDRRVIRGNTYALPTGQVPGQPDPLELQRQQQARRRALARKRAQEQLKPRTPEPVEGRKHVDIQTELYLEEIADRIVEVDMECQTDAFLDRPPTPLFIPAKTGKDVATQILGGELFDFDLEVKPMLEVLVGKTIEQSLLEVMEEEELANLRARQYAYEEIRNVELAEVQRLEEQERRHREEKERRKKQQWEIVHKRNETLQKISALIFARQYLANLLPSVFDKLRNSGFFYDPIERDIEVGFLPWLMNEVEKSMEHSMVGRTVLDMLIRDVVERRINDYEHKEAMPPGQKTNVINGPNTVTDPSVTTLHTQKPVLDRVSSQPAPSQERKPVEEGGHLMAE
notes: Rsph3b (radial spoke head protein 3 homolog B), mouse, NM_001083945; non-tagged, in pcDNA3.4; Non-tagged
B2: FLAG-tagged Rsph16 (natural protein, mouse, UniProt Q80Y75 1-316, looked up)
chain: MGLDYYAVLQVTRNSEDAQIKKAYRKLALKNHPLKSSEPGAPEIFKQIAEAYDVLSDPVKRGIYDKFGEEGLKGGIPLEFGSQTPWTTGYVFHGNPDKVFHEFFGGDNPFSEFFDAEGNDIDLNFGGLWGRGVQKQDPPIERDLYLSLEDLFFGCTKKIKISRRVLNEDRYSSTIKDKILTIDVRPGWRQGTRITFEKEGDQGPNIIPADIIFIVKEKLHPRFRREHDNLFFVYPIPLGKALTCCTVEVKTLDDRLLNIPINDIVHPKYFKIVPGEGMPLPENPSKKGDLFIFFDIQFPTRLTPQKKQMLRQALLT
notes: Rsph16 (homologue of HSP40, DnaJ family), mouse, NM_153527; full-length gene amplified from cDNAs of mouse ependymal cells, in pcDNA3.4; Stands as a homodimer (the arch bridge Rsph16-Rsph16') in both the head-neck monomer and the head-neck dimer; not shown: 3xFLAG, N-terminal, kept
B3: Rsph9 (natural protein, mouse)
chain: MDADSLLLSLELASGSGQGLSPDRRASLLTSLMLVKRDYRFARVLFWGRILGLVADYYIAQGLSEDQLAPRKTLYSLNCTEWSLLPPATEEMAMQISVVSGRFMGDPSHEYEHTELQKVNEGEKVFDEEVVVQIKEETRLVSIIDQIDKAVAIIPRGALFKTPFGVTHVNRTFEGLPLSEVRKLSSYFHFREAIDLKNKTLLEKSDLEPSLDFLDSLEYDIPRGSWSIQMERGNALVVLRSLLWPGLTFYHAPRTKNYGYIYVGTGEKNMDLPFML
notes: Rsph9 (radial spoke head protein 9 homolog), mouse, NM_029338; non-tagged, in pcDNA3.4; Two copies stand in each RS head; Non-tagged
B4: Rsph23 (natural protein, mouse)
chain: MEVSMPLPQIYVEKTLALIKPDVVDKEEEIQDIILGSGFTIIQRRKLHLSPEHCSNFYVEQYGKMFFPNLTAYMSSGPLVAMILARHKAISYWKELMGPSNSLVAKETHPDSLRAIYGTDELRNALHGSNDFAASEREIRFMFPAVIIEPIPIGQAAKDYINLYVAPTLLQGLTELCKEKPPDPYLWLADWLMKNNPNKPKLCHFPVTEEP
notes: Rsph23, mouse, NM_080637

Tests used:
Assay in all cases: cryo-EM structure; RS head-neck complex co-expressed in HEK293F, purified by Strep-Tactin then anti-FLAG beads, cross-linked by GraFix (0-0.1% glutaraldehyde, 10-40% glycerol, 4 °C); monomer map 3.28 Å, dimer map 3.57 Å
[1] = target: T1, Rsph4a; details: both partners purified
[2] = target: the molecule itself
[3] = target: B2; details: both partners purified
[4] = target: B1; details: both partners purified

binding result [1]	binding result [3]	binding result [4]	Binder	stoichiometry N [2]
binds	–	–	B1	–
–	–	–	B2	2
binds	binds	–	B3	–
–	binds	binds	B4	–
